Measured values: US20230174575A1 (priority 2020, published 2023)

What was measured:
SARS-CoV-2 = type: cell-based; settings: concentrations ranging from 10 mg/ml to 1.25 mg/ml
Vero cells = experiment: Cell toxicity against Vero cells by MTT assay; settings: MTT assay
Method: Cell toxicity was monitored by establishing the effect of lysozyme HCl against Vero cells (epithelial cells of monkey kidneys). The cells were seeded in 96-well plates at the concentration of 1×10^4 cells/well. 24 hours after seeding, the cells were treated with serial dilutions of lysozyme HCl or chloroquine (as control), in a final volume of 200 in triplicate. After 72 hours' incubation at 37° C. with 5% CO2, cell viability was measured by MTT assay (D'Alessandro, M. et al., Differential effects on angiogenesis of two antimalarial compounds, dihydroartemisinin and artemisone: Implications for embryotoxicity, Toxicology. 241 (2007) 66-74. Doi: 10.1016/j.tox.2007.08.084).
The data were calculated as percentage cell viability using the formula:
[(absorbance of sample−blank of cell-free sample)/mean absorbance of control of media]×100.
The cytotoxicity of ovotransferrin and chloroquine (CQ) was measured by MTT assay, similarly to the method used for lysozyme HCl.

B1: Ovotransferrin: hen egg white protein, product code 501P2001090, produced by Bioseutica BV (protein, UniProt P02789 20-705, looked up)
Ovotransferrin: APPKSVIRWCTISSPEEKKCNNLRDLTQQERISLTCVQKATYLDCIKAIANNEADAISLDGGQAFEAGLAPYKLKPIAAEVYEHTEGSTTSYYAVAVVKKGTEFTVNDLQGKTSCHTGLGRSAGWNIPIGTLLHRGAIEWEGIESGSVEQAVAKFFSASCVPGATIEQKLCRQCKGDPKTKCARNAPYSGYSGAFHCLKDGKGDVAFVKHTTVNENAPDQKDEYELLCLDGSRQPVDNYKTCNWARVAAHAVVARDDNKVEDIWSFLSKAQSDFGVDTKSDFHLFGPPGKKDPVLKDLLFKDSAIMLKRVPSLMDSQLYLGFEYYSAIQSMRKDQLTPSPRENRIQWCAVGKDEKSKCDRWSVVSNGDVECTVVDETKDCIIKIMKGEADAVALDGGLVYTAGVCGLVPVMAERYDDESQCSKTDERPASYFAVAVARKDSNVNWNNLKGKKSCHTAVGRTAGWVIPMGLIHNRTGTCNFDEYFSEGCAPGSPPNSRLCQLCQGSGGIPPEKCVASSHEKYFGYTGALRCLVEKGDVAFIQHSTVEENTGGKNKADWAKNLQMDDFELLCTDGRRANVMDYRECNLAEVPTHAVVVRPEKANKIRDLLERQEKRFGVNGSEKSKFMMFESQNKDLLFKDLTKCLFKVREGTTYKEFLGDKFYTVISSLKTCNPSDILQMCSFLEGK
antiviral activity of ovotransferrin alone (SARS-CoV-2): no antiviral activity was detected
viability compared with control cells (Vero cells; 10 mg/ml): 100%
cytotoxicity (Vero cells; maximum concentration used (10 mg/ml)): non-toxic
